Source: US20250171532A1 (NB HEALTH LABORATORY, published 2025)

T1: mouse LPA3 with FLAG tag (mouse LPA3 gene transfected cell) (mouse, UniProt Q9EQ31 1-354)
T1 construct: not shown: FLAG tag added at the 5' terminal of the gene
T1 sequence: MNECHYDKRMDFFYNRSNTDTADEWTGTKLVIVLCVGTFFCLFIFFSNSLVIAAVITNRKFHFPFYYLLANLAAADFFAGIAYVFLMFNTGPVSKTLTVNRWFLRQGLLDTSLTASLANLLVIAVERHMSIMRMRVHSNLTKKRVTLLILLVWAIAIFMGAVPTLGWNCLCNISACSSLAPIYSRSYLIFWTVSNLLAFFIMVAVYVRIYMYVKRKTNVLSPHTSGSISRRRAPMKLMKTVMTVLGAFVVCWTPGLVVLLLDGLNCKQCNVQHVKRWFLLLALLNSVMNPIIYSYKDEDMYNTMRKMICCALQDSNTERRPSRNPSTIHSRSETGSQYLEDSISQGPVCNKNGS

T2: human LPA3 with FLAG tag (human LPA3 gene transfected cell) (human, UniProt Q9UBY5 1-353)
T2 construct: also called EDG7; not shown: FLAG tag added at the 5' terminal of the gene
T2 sequence: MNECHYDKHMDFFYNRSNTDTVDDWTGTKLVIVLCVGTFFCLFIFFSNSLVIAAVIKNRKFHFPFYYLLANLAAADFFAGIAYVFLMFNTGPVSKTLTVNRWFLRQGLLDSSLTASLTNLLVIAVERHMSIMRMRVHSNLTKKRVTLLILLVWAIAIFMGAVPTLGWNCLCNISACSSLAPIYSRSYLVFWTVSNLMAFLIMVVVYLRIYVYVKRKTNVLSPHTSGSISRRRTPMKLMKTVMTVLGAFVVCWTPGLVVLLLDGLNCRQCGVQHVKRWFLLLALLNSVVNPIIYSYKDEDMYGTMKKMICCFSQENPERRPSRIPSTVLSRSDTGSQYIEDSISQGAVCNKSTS


Legend:
[1] = target: T3, mouse LPA1 (mouse, UniProt P61793 1-364); experiment: flow cytometry, mouse LPA1-stably expressing CHO cells, median fluorescence intensity
T3 construct: Untagged, on mouse LPA1-stably expressing CHO cells (Flp-In-CHO); also called mLPA1
Excerpt: (§1) The human LPA1-stably expressing CHO cell and the mouse LPA1-stably expressing CHO cell were washed with PBS, then detached from the cell culture dishes by an enzyme-free cell dissociation buffer (Thermo Fisher Scientific, Inc.), then washed with PBS, and then collected by centrifugation. The human LPA1-stably expressing CHO cell and the mouse LPA1-stably expressing CHO cell were suspended at 1×10⁷ cells/mL in Fc Block (Sci-Tech Biosciences, Inc.) diluted by 500 times in FACS buffer, and then allowed to stand at 4° C. for 30 minutes to block the cells. The cells were collected by centrifugation and suspended in FACS buffer at 4×10⁶ cells/mL, and this suspension was dispensed into a V-bottom 96-well plate (Thermo Fisher Scientific, Inc.) at 25 μL (1×10⁵ cells)/well. As primary antibodies, the eleven types of LPA1 antibodies produced and purified by the method described above and a mouse isotype control antibody (Fujifilm Wako Pure Chemicals Corporation) were diluted stepwise, which was added to each well at 25 μL/well, and allowed to stand at 4° C. for 1 hour. The cells were collected by centrifugation and washed with 120 μL of FACS buffer. This washing operation was repeated twice. To the cell sediment, 25 μL each of Goat Anti-Mouse IgG H&L (DyLight 650) (Abcam) that was a secondary antibody diluted by 500 times in FACS buffer was dispensed, then suspended, and then allowed to stand at 4° C. for 1 hour. The cells were washed twice, then suspended in 50 μL of FACS buffer, and the binding of antibodies to the cells was measured using a flow cytometer (Agilent Novocyte).
(§2) A graph was created, in which a concentration of the antibody was plotted on the […] axis, and a median fluorescence intensity of the flow cytometer histogram was plotted on the horizontal axis. All of the eleven antibodies were confirmed to dose-dependently bind to the human LPA1-stably expressing CHO cell and the mouse LPA1-stably expressing CHO cell. The results of the binding of each antibody to the human LPA1-stably expressing CHO cell are presented in FIG. 2A to FIG. 2K, and the results of the binding of each antibody to the mouse LPA1-stably expressing CHO cell are presented in FIG. 3A to FIG. 3K.

[2] = target: T4, human LPA1 (human, UniProt Q92633 1-364); experiment: cell-based or functional assay
[3] = target: T3, mouse LPA1; experiment: cell-based or functional assay
[4] = target: T4, human LPA1; experiment: flow cytometry, human LPA1-stably expressing CHO cells, median fluorescence intensity
Excerpt: as §1, §2

[5] = target: T4, human LPA1; experiment: cell-based or functional assay; remark: listed apart in the source
[6] = target: T5, mouse LPA2 with FLAG tag (mouse LPA2 gene transfected cell) (mouse, UniProt Q9JL06 1-348); experiment: flow cytometry, transfected HEK293FT cells, histogram shift
T5 construct: not shown: FLAG tag added at the 5' terminal of the gene
Protocol: (§3) BTEK293FT cell was transfected with 10 μg of an expression vector carrying each synthetic gene using Lipofectamine 2000, to prepare a human LPA1 gene transfected cell, a mouse LPA1 gene transfected cell, a human LPA2 gene transfected cell, a mouse LPA2 gene transfected cell, a human LPA3 gene transfected cell, and a mouse LPA3 gene transfected cell.
(§4) The next day, the cells were washed with PBS, then detached from the cell culture dishes by an enzyme-free cell dissociation buffer (Thermo Fisher Scientific, Inc.), then washed with PBS, and then collected by centrifugation. Goat serum (Thermo Fisher Scientific, Inc.) was diluted by 2 times in FACS buffer (PBS containing 1% o of FBS), into which the cells were suspended at 1×10⁷ cells/mL. This suspension was allowed to stand at 4° C. for 30 minutes to block the cells. The cells were collected by centrifugation and suspended in FACS buffer at 4×10⁶ cells/mL, and this suspension was dispensed into a V-bottom 96-well plate (Thermo Fisher Scientific, Inc.) at 25 μL (1×10⁵ cells)/well.
(§5) The cells were collected by centrifugation and washed with 120 μL of FACS buffer. This washing operation was repeated twice. To the cell sediment, 25 μL each of Goat Anti-Mouse IgG H&L (DyLight 650) (Abcam) that was a secondary antibody diluted by 500 times in FACS buffer was dispensed, then suspended, and then allowed to stand at 4° C. for 1 hour. The cells were washed twice, then suspended in 50 μL of FACS buffer, and the whole content thereof was transferred to a V-bottom 96-well plate (Greiner), to measure the binding of antibodies to the cells using a flow cytometer (Agilent Novocyte).

[7] = target: T1, mouse LPA3 with FLAG tag (mouse LPA3 …); experiment: as above
Protocol: as §3, §4, §5

[8] = target: T2, human LPA3 with FLAG tag (human LPA3 …); experiment: as above
Protocol: as §3, §4, §5

[9] = target: T6, human LPA2 with FLAG tag (human LPA2 gene transfected cell) (human, UniProt Q9HBW0 1-348); experiment: as above
T6 construct: also called EDG4; not shown: FLAG tag added at the 5' terminal of the gene
Protocol: as §3, §4, §5

T4 sequence (Q92633 whole entry): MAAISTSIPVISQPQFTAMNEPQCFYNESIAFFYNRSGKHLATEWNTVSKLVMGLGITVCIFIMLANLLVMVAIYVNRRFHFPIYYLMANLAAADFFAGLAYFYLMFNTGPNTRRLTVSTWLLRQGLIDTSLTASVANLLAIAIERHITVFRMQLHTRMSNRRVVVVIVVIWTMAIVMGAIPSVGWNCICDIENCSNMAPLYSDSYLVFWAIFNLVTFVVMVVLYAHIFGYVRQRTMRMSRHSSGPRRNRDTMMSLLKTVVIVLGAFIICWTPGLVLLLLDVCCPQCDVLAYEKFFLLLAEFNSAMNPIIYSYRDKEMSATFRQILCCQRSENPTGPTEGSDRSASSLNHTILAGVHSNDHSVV
T5 sequence (Q9JL06 whole entry): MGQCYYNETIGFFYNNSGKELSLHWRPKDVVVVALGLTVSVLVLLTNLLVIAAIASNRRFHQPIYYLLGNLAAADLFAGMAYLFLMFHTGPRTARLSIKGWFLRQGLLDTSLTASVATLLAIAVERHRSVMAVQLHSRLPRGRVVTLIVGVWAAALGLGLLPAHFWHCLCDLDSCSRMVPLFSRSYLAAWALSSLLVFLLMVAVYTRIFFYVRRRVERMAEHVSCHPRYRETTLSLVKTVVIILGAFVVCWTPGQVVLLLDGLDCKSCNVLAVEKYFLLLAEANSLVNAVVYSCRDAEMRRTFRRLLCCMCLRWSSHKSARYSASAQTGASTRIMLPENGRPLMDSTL
T3 sequence (P61793 whole entry): as the sequence (Q92633 whole entry) above, with I4A, I8S, P22Q, H40Y, I61V, E193D, N194H, I269V, S331N, T335N counted along it
T6 sequence (Q9HBW0 other isoform, or with tags, fused parts or gaps): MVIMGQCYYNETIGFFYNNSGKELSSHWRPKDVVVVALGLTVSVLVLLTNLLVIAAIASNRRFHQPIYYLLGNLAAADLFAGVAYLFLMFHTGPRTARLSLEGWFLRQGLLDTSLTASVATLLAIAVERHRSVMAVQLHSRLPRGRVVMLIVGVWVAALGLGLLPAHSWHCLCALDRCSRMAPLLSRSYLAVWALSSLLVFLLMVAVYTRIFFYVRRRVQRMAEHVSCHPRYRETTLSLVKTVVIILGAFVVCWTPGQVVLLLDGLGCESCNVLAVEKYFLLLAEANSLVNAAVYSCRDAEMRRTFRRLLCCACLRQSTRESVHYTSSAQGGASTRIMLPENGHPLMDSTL

EC50 [1] [nM]	Intracellular cAMP signaling inhibition (Inhibition rate %/100 nM) [2] [%]	Intracellular cAMP signaling inhibition (Inhibition rate %/100 nM) [3] [%]	EC50 [4] [nM]	Intracellular cAMP signaling inhibition IC50 [5] [nM]	Binder	binding result [6]	binding result [7]	binding result [8]	binding result [9]
1.8	47	20	1.7	25.1	210309-1-C (antibody, mouse IgG1, V domains shown, Mouse monoclonal from human LPA1 immunization) VH: QVHLQQSGAELARPGASVKLSCKASGYSFTAYGISWVQQRTGQGLEWIGEIYPRSGNTYYSEKFKGKATLTADKSSSTAYMELRSLTSEDSAVYFCARESLLKRLGWYFDVWGTGTTVTVSS VL: DIQMTQSPASLSASVGETVTITCRASQNIYSFLAWYQQKQGNSPQLLVYNAKTLAEGVPSRFSGSGSGTQFSLKINSLQPEDFGSYYCQHHYGPPLTFGVGTKLELK	no binding (tested: 25 g/mL (so in the source))	no binding (tested: 25 g/mL (so in the source))	no binding (tested: 25 g/mL (so in the source))	no binding (tested: 25 g/mL (so in the source))
1.6	22	37	2.5	49.1	210420-1-H (antibody, mouse IgG1, V domains shown, Mouse monoclonal from mouse LPA1 immunization) VH: QFQLQQSGAELARPGASVKLSCKASGYTFASFGISWVKQRTGQGLEYIGEIYPRSGTTYFNEKFRGKATLTADKSSSTAYMELRSLTSEDSAVYFCAREGVRRYAMDYWGQGTSVTVSS VL: DIQVTQSPASLSASVGETVTITCRASGNIYSFLAWYQQKQGKSPQLLVYNAKTLAEGVPSRFSGSGSGTQFSLKISSLQPEDFGSYYCQHHYGIPLTFGGGTKLDLK	no binding (tested: 25 g/mL (so in the source))	no binding (tested: 25 g/mL (so in the source))	no binding (tested: 25 g/mL (so in the source))	no binding (tested: 25 g/mL (so in the source))
2.1	32	32	1.4	21.8	210309-2-A (antibody, mouse IgG1, V domains shown, Mouse monoclonal from human LPA1 immunization) VH: QVQLQQSGAELARPGASVKLSCKASGYTFTSYGISWVKQRTGQGLEWIGEIYPRSGNTYYNEKFKGRATLTADKSSSTAYMELRSLTSEDSAVYFCARESILLRLGWYFDVWGTGTTVTVSS VL: DIQMTQSPASLSASVGGTVTITCRASENIYRFLAWYQQKQGKSPQLLVYNAKTLAEGVPSRFSGSGSGTQFSLKINSLQPEDFGIYYCQHHYGPPLTFGAGTKLELK	no binding (tested: 25 g/mL (so in the source))	no binding (tested: 25 g/mL (so in the source))	no binding (tested: 25 g/mL (so in the source))	no binding (tested: 25 g/mL (so in the source))
2.1	22	25	2.7	60.5	210310-1-D (antibody, mouse IgG1, V domains shown, Mouse monoclonal from human LPA1 immunization) VH: QVQVQQSGAELARPGASVRLSCKASGYTFTSFGVNWVKQRTGQGLEWIGQIYPRTGTTYHNERFKGKATLTTDKSSSTAYMELRSLTSEDSAVYFCAREGDRYSLAYWGQGTLVTVSA VL: DIQMTQSPASLSASVGETVTITCRASENIYRFLAWYQQKQGKSPQLLVYNAKTLVEGVPSRFSGSGSGTQFSLKINNLQPEDFGSYYCQHHYGIPLTFGAGTKLELK	no binding (tested: 25 g/mL (so in the source))	no binding (tested: 25 g/mL (so in the source))	no binding (tested: 25 g/mL (so in the source))	no binding (tested: 25 g/mL (so in the source))
2	1	30	2.3	69.9	211222-1-A (antibody, mouse IgG1, V domains shown, Mouse monoclonal from human LPA1 immunization) VH: QVQVHQSGAELARPGASVRLSCKASGYTFTSFGVNWVKQRTGQGLEWIGQIYPRSGTTYHNERFKGKATLTADKSSSTAYMELRSLTSEDSAVYFCAREGDRYSLAYWGQGTLVTVSA VL: DIQMTQSPASLSASVGETVTITCRASENIYRFLAWYQQKQGKSPQLLVSNAKTLAEGVPSRFSGSGSGTQFSLKINYLQPEDFGNYYCQHHYGIPLTFGAGTKLELK	no binding (tested: 25 g/mL (so in the source))	no binding (tested: 25 g/mL (so in the source))	no binding (tested: 25 g/mL (so in the source))	no binding (tested: 25 g/mL (so in the source))
